Data reported in patent US20230313187A1, “MODIFICATIONS OF MAMMALIAN CELLS USING ARTIFICIAL MICRO-RNA TO ALTER THEIR PROPERTIES AND THE COMPOSITIONS OF THEIR PRODUCTS” (DNA TWOPOINTO INC., priority 2020, published 2023).

B1: SEQ ID NO: 209: three-hairpin amiRNA, guides SEQ ID NOs 53, 54, 55 complementary to Cricetulus griseus glutamine synthetase mRNA (nucleic acid)
chain: ATCTGATCTTCTGAAGAAAATATATTTCTTTTTATTCATAGCTCTTAACTAGTGGTGATAGCAATGTCAGCAGTGCCTTTGAGTTACAATGAGACAGCTGGTGAAGCCACAGATGCAGCTGTCTCCTTGTAACTCACAAGTAAGGTTGACCATACTCTACTCTAGAGTTGTGTTTTAATGTATATTAATGTTACTAATGTGTTTACTAGTGGTGATAGCAATGTCAGCAGTGCCTTATTCTGACCAATAAAAGCAAGGTGAAGCCACAGATGCTTGCTTTTACTGGTCAGAATCAAGTAAGGTTGACCATACTCTACTCTAGGTTATTTTTAGTATGATTCTGTAAAAATGAATTAATACTAACTAGTGGTGATAGCAATGTCAGCAGTGCCTTTTTACCTGAAGAACTAGCAGCGTGAAGCCACAGATGGCTGCTAGTTATTCAGGTAAACAAGTAAGGTTGACCATACTCTACTCTAGTCAGTTTTATTGATAGTCTTTTCAGTATTATTGATAATCTT
B2: SEQ ID NO: 197: single hairpin amiRNA, guide SEQ ID NO: 23 complementary to Cricetulus griseus FUT8 mRNA (nucleic acid)
chain: ATCTGATCTTCTGAAGAAAATATATTTCTTTTTATTCATAGCTCTTAACTAGTGGTGATAGCAATGTCAGCAGTGCCTGGAAAAACATCCATTCTCATTCGTGAAGCCACAGATGGAATGAGAATAGATGTTTTTCAAAGTAAGGTTGACCATACTCTACTCTAGAGTTGTGTTTTAATGTATATTAATGTTACTAATGTGTTTTCAGTTTTATTGATAGTCTTTTCAGTATTATTGATAATCTT
B3: SEQ ID NO: 196: two-hairpin amiRNA, guides SEQ ID NOs 23 and 24 complementary to Cricetulus griseus FUT8 mRNA (nucleic acid)
chain: ATCTGATCTTCTGAAGAAAATATATTTCTTTTTATTCATAGCTCTTAACTAGTGGTGATAGCAATGTCAGCAGTGCCTGGAAAAACATCCATTCTCATTCGTGAAGCCACAGATGGAATGAGAATAGATGTTTTTCAAAGTAAGGTTGACCATACTCTACTCTAGTTATATTCTTTAGGCACGAATGTGTGTTTAAAAAAAATAAAAACTAGTGGTGATAGCAATGTCAGCAGTGCCTTTAAATTACATAATGTGGCAGTGTGAAGCCACAGATGACTGCCACATCATGTAATTTACAAGTAAGGTTGACCATACTCTACTCTAGAGTTGTGTTTTAATGTATATTAATGTTACTAATGTGTTTTCAGTTTTATTGATAGTCTTTTCAGTATTATTGATAATCTT

How the values were obtained:
[1] = tested on: Cricetulus griseus glutamine synthetase mRNA; experiment: Growth of CHO cell pools with amiRNA targeted toward glutamine synthetase in the absence of glutamine; assay type: cell-based; settings: for VCD: glutamine-free media
From the text: The multi-hairpin amiRNA was cloned into a piggyBac-like transposon to the 3′ of a spacer polynucleotide with nucleotide sequence SEQ ID NO: 280, and operably linked to a PGK promoter with nucleotide sequence SEQ ID NO: 386. The nucleotide sequence of the multi-hairpin amiRNA gene is given as SEQ ID NO: 540. The piggyBac-like transposon further comprised a selectable marker conferring resistance to G418/neomycin with amino acid sequence SEQ ID NO: 296. The piggyBac-like transposon further comprised a target sequence 5′-TTAA-3′ immediately followed by an ITR with nucleotide sequence SEQ ID NO: 448 (which is an embodiment of SEQ ID NO: 564), immediately followed by further transposon end sequences with nucleotide sequence SEQ ID NO: 445. The piggyBac-like transposon further comprised nucleotide sequence SEQ ID NO: 446, immediately followed by a second ITR with nucleotide sequence SEQ ID NO: 449 (which is an embodiment of SEQ ID NO: 447), immediately followed by the target sequence 5′-TTAA-3′. The transposon was configured so that the multi-hairpin amiRNA, the spacer polynucleotide and the gene encoding the selectable marker, as well as all necessary operably linked control elements, were transposable by a corresponding transposase. The full sequence of the transposon comprising the multi-hairpin amiRNA gene and selectable marker is given as SEQ ID NO: 544.
The transposon was co-transfected with mRNA encoding transposase with polypeptide sequence SEQ ID NO: 523 into a CHO cell line with intact glutamine synthetase genes. The pool of transfected cells were grown in the presence of 600 or 1,000 μg/ml G418 plus 5 mM glutamine until their viability reached 95%.
After the transfected cell pools had recovered to >95% viability, we tested their ability to grow in the absence of glutamine. Cells were transferred to Sigma Advanced Fed Batch media lacking glutamine to an initial a density of 0.3×10^6 live cells/ml. The viable cell density was measured at various times after the removal of glutamine. On the fourth day, cells were diluted back to a density of 0.3×10^6 live cells/ml in media lacking glutamine, to ensure that growing cells had sufficient nutrients. […] After this, the viable cell density approximately tripled between dilution on day 4 and day 6 and doubled again between day 6 and day 8. […] The viable cell density then began to fall for both pools transfected with a transposon comprising the multi-hairpin amiRNA with nucleotide sequence SEQ ID NO: 209 at day 6 (Table 7 columns B and C, compare rows 6, 7 and 8). By day 8 the viable cell density had fallen precipitously to less than 0.02×10^6 live cells/ml. There was no difference between the growth of cells transfected with the control transposon or the transposon comprising the multi-hairpin amiRNA with nucleotide sequence SEQ ID NO: 209 in the presence of glutamine: all pools grew well. We conclude that a multi-hairpin amiRNA comprising guide strand sequences complementary to three different sequences within the CHO glutamine synthetase mRNA target (nucleotide sequence SEQ ID NO: 10) can be used to make a CHO cell dependent upon exogenously provided glutamine. The cells in this pool had been selected with neomycin/G418, which allowed growth of cells whose genomes comprised the transposon comprising the multi-hairpin amiRNA. […] By using the multi-hairpin amiRNA gene we were able to produce a pool of cells in which expression of the essential metabolic enzyme glutamine synthetase was inhibited to a level that prevents growth of the cell in greater than 93% of the cells in the pool.
The multi-hairpin amiRNA with nucleotide sequence SEQ ID NO: 209 was also cloned into three other piggyBac-like transposons, also to the 3′ of a spacer polynucleotide with nucleotide sequence SEQ ID NO: 280. In the first transposon the multi-hairpin amiRNA was operably linked to a PGK promoter with nucleotide sequence SEQ ID NO: 385. […]

[2] = tested on: Cricetulus griseus alpha-(1,6)-fucosyl transferase (FUT8) mRNA; experiment: Antibody titer and fucosylation with different numbers of amiRNA hairpins in the 3' UTR of the glutamine synthetase selectable marker; assay type: cell-based; settings: for antibody titer: weaker (PGK) promoter operably linked to glutamine synthetase, amiRNA in 3' UTR; for antibody fucosylation: weaker (PGK) promoter, amiRNA in GS 3' UTR, natural level around 80-85%
From the text: One- two- or three-hairpin amiRNAs were incorporated into the 3′ UTR of a glutamine synthetase selectable marker on a transposon. The multi-hairpin amiRNA with nucleotide sequence SEQ ID NO: 194 comprised three hairpins as described in Section 6.1.1.1.
These amiRNA sequences were placed to the 3′ of an open reading frame encoding a glutamine synthetase protein (with polypeptide sequence SEQ ID NO: 307) and followed by a human globin polyadenylation sequence. The amiRNA genes were cloned into a transposon vector in which they were operably linked to a Pol II promoter. The transposon further comprised genes encoding an antibody with mature light chain polypeptide sequence SEQ ID NO: 286 and mature heavy chain polypeptide sequence SEQ ID NO: 288. The transposon further comprised a left end comprising a 5′-TTAA-3′ target sequence immediately followed by an ITR with nucleotide sequence SEQ ID NO: 423 (which is an embodiment of SEQ ID NO: 421) and additional nucleotide sequence SEQ ID NO: 417 and a right end comprising nucleotide sequence SEQ ID NO: 419 immediately followed by an ITR with nucleotide sequence SEQ ID NO: 424 (which is an embodiment of SEQ ID NO: 422) immediately followed by a 5′-TTAA-3′ target sequence. The transposon was configured so that the multi-hairpin amiRNA, the glutamine synthetase gene and the genes for both antibody chains, as well as all necessary operably linked control elements were transposable by a corresponding transposase.
Transposons were co-transfected with mRNA encoding transposase with polypeptide sequence SEQ ID NO: 472 into a CHO cell line with no functional glutamine synthetase gene. The pool of transfected cells were grown in the absence of glutamine added to the media until their viability reached 95%. They were then grown in a 14 day fed-batch using Sigma Advanced Fed Batch media. Protein was purified from the culture supernatant using protein A affinity chromatography, reduced with dithiothreitol, and analyzed on an Agilent QTOF mass spectrometer. We integrated the area under the peaks at 50,456 Da (corresponding to the heavy chain modified by G0: the conserved heptasaccharide core composed of 2 N-acetylglucosamine, 3 mannose and 2 other N-acetylglucosamine residues that are β-1,2 linked to α-6 mannose and α-3 mannose, forming two arms) and 50,602 (corresponding to the heavy chain modified by G0F: the conserved heptasaccharide core plus a fucose residue) to calculate the relative proportion of fucosylated and afucosylated antibody.
Table 5. Inhibition of antibody fucosylation with different numbers of amiRNA hairpins. Transposons were constructed as described in Section 6.1.2.1. The SEQ ID NO of the amiRNA gene including the glutamine synthetase ORF and the globin polyA sequence is given in column A. The Pol II promoter shown in column B was operably linked to the amiRNA whose SEQ ID NO is shown in column C. The amiRNA comprised the number of hairpins shown in column D. Following a 14-day fed batch antibody production run, the culture supernatant contained the concentration of antibody shown in column E. The percentage of antibody that was afucosylated is shown in column F, the percentage that was fucosylated is shown in column G. BDL=below detection limit.

Molecule | cells in the pool in which glutamine synthetase is inhibited to a level that prevents growth ([1]; G418-selected pool) | dependence on exogenously supplied glutamine ([1]; amiRNA operably linked to a promoter and integrated into the CHO genome, also PGK, EF1, EEF2 promoters in other transposons, listed as 209) | increase in viable cell density ([1]; between day 1 and day 4 without glutamine, pool selected with 600 μg/ml G418) | cells still alive ([1]; by day 8 without glutamine) | viable cell density ([1]; by day 8 without glutamine, both pools) | VCD ([1]; 600 ug/ml G418 pool, day 1) | VCD ([1]; 600 ug/ml G418 pool, day 4 after dilution) | VCD ([1]; 600 ug/ml G418 pool, day 4 before dilution) | VCD ([1]; 600 ug/ml G418 pool, day 6) | VCD ([1]; 600 ug/ml G418 pool, day 8) | VCD ([1]; 1000 ug/ml G418 pool, day 1) | VCD ([1]; 1000 ug/ml G418 pool, day 4 after dilution) | VCD ([1]; 1000 ug/ml G418 pool, day 4 before dilution) | VCD ([1]; 1000 ug/ml G418 pool, day 6) | VCD ([1]; 1000 ug/ml G418 pool, day 8) | VCD ([1]; pool selected with 600 ug/ml G418, day 0 (inoculation)) | VCD ([1]; pool selected with 1000 ug/ml G418, day 0 (inoculation)) | increase in viable cell density ([1]; to day 4 without glutamine, pool selected with 1,000 μg/ml G418) | antibody titer [2] | antibody fucosylation [2]
B1 | greater than 93% | completely dependent upon exogenously supplied glutamine | less than 50% | less than 7% | less than 0.02 ×10^6 live cells/ml | 0.45 x 10^6 live cells/ml | 0.30 x 10^6 live cells/ml | 0.47 x 10^6 live cells/ml | 0.21 x 10^6 live cells/ml | 0.01 x 10^6 live cells/ml | 0.31 x 10^6 live cells/ml | 0.30 x 10^6 live cells/ml | 0.30 x 10^6 live cells/ml | 0.26 x 10^6 live cells/ml | 0.02 x 10^6 live cells/ml | 0.30 x 10^6 live cells/ml | 0.30 x 10^6 live cells/ml | failed to increase their viable cell density at all |  | 
B2 |  |  |  |  |  |  |  |  |  |  |  |  |  |  |  |  |  |  | 514 mg/L | about 50%
B3 |  |  |  |  |  |  |  |  |  |  |  |  |  |  |  |  |  |  | 770 mg/L | 10%
